Data taken from the NTF2 design screens of Basanta et al. (2020).

Assay: protease stability score; higher = more stable; yeast display proteolysis, trypsin and chymotrypsin;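 further: relative to predicted unfolded state with 0 unfolded-like and 1 meaning tenfold more protease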

Sequence	protease stability score
DHDEKVSKEVLHEFLHVLRTGNWDHLIKNIDPNARLEVDGVDIHGRENVHKFLDEFHKRMGVDHHELHDEKMTIIDGVLQIDLDTTTEFNGRRFKTTIHLFVLKINGRWTFKTLIIKHE	2.03
DHDEKWAREVIRLLIEDIVTGDEESLSKLFDPHVRIEIGDKEHIGMEIALKLMIELWERLGVKHIHFHMSDIRVYDGRLDVDSRLHHVVNGRKHETKVRIFIRKINGRWVIESLVIH	2.25
DHDEREYHHFVQILIHSMRTGDWVKLEELMDPHVLIRIGDKELHGREELYRFMLQARIELEVKDYRLYGDKVELDTLLSMLIGDKLSETDSRMKLEKVDGKWIIREIFVDPETKKRLLD	1.64
DHDKEYADRSIELWLKSHETGDEELVMRLADPHARVYVGEYEDHGREMVMIMLRVLGVDHYSVRSWHVQGDKVSITGELQVGDKKFRSHLTVRKVNGRWLLSEVRIG	1.16
DHDTRRHEKILSDYAHALHTGNFHMLKELMDPHVRLEIGDKEFVGREEVMRYLQHIRSYIHRLRIDHIEIQGDKIHSDVREHLHFEIGDKDHNHDTRVEQLWLKVNGRWLLQQIVVR	2.16
DHEDDEFDFAIELWVTIMKTGDEEFLERYVDPHARLIVGDKRFHGREVIEFMLRRIDVLDRIEVEHRQSVNGRMIIHQHLHHAIDGRRNEVRMRVVVHKVDGRWDLDELQFD	1.36
DHEDEHSEEMEQLIFTWLQTGDWEAFMKFLDPRVILHIGDKTVIGREKFIEFIEQFKNIRMKIHDVQVQGNKIHIDVRTDIDGREYREHIHIHIVNGRIRHIEVRHH	1.92
DHEDELKMHLFEHLLEVLMTGDEHRKTRLLDPDARSHLDINGQKIDVMGWEEVTKLDRKLHEEIRFHEIHIREWELQGDKIFVVGETRIEINGVEFRTEVRIIVVVVNGRLKALFFHVH	0.271
DHEDELMERLARLFVHALQTGDEDLLRRYADPNTLINVNGKNLHGMEEESRFWKEIRIEHTEVERIHVQGNKSTVFVRVFFRIGDKHVHEHRILRLEFVDGRLRSVELERH	1.69
DHEDERETWAYHMLIHAFRTGDERIHEELLDPNVRTDVDGRTSHGWENVVKLVHHVLRLLGIDHIRLRRSDVVDGRVYMQGDIRVNGRTIETRVTIQVINGRVHSWSVRAE	1.6
DHEDERSRELTQILWKAWLTGDEELFHRLHDPDVRTEFDGREYHGWERFSELLNQFKNVRIRLRDYRIQGEKSKLDTQINIGDKRTRFHIEIYIIDGRLKNMRFEIE	0.868
DHEDHLSELAEHLIHHHWLTGDEHLLERMADPHAQIIIGDKHLHGREEVSRWLIEFMHKFKNMRLQIDHRHLIDGRLHVEVTINIGDKRLKVHRHSIKINGQWHLKSIIIE	1.09
DHEDKLHEEAFRRWLHVFKTGNEDLIRRLVDPHVKLEVDGQDFHGREELLRFLIERIRNLGIKVSDVKVKHVDIQGDKLDIDVRFIVEFNGRRTEINEWLIMEKIDGRWVVQSIHIR	1.3
DHEDRLAEEIARFIYHYWETGDEEEISDLFDPHVRVEININGKRIEKVGREHFYHWFHYWRERFKNLKINFKRLDPVNGKVHVETRVHQGDKERRMILEFDVVNGRIRVFRMEVHEN	2.5
DHEEDLSHEFLERLVSAWRTGDEHTWNRLADPNYKLEINGRHSVGREDSLRVIKDIRDKYKGLTIDDVTIKDVRIFDGVIRAKMVLQLNFNGVNIEEEVDIVIEKVDGRWFLKFEIVK	0.653
DHEEEEAERMARKIIHVLHTGDFDSWSHLADPNVRIEVGDKELHGREDLRKLFHLWDERFKNATIMVKDMRVQGNKVHLDHRLNIDGRTIHTTSEIIVINGRIHTVIIDEK	2.29
DHEEEEEHFLLEHMIEAIVTGDEDRLKELVDPHVRMDIDGVIIHGMDDIARWLKELRSIIRHFIPRDRKWQGNKIHIEGEVHGELRFDGRNQTDTFRIEIVSHKINGRWVIRSESFR	1.18
DHEEEEMRDRFKVLMRALLTGDFEELIRQMDPDYRLDINGRELIGREEYRKHLEKQLKHWRWKRIDVKHVETQGDKLHARINVHGDIDGRDINTETDWHLEVIDGRVRSEKISIR	1.58
DHEEEHALRIMQLLLWLDFTGDEETIHHLMDPHVRSVWIVGDKTITRHGRENVLKLFRDLGFKHVKDFRIRDVSAFDGRVDLKGRIDGQYGDKRETWDMDVELNVVDGRLKFFIIRFK	1.69
DHEEEHARSIIELLLYAFTTGNEKLLRRLIDPDAKVDIDGKSLHGMEDVSRHLREMIDHWRFRHIDVRRLEVQGEWIHITGRWDGDQGDKKVERDVEVRVLVVDGRVKHRSIHFR	1.34
DHEEEIALEVAEKILKLWLTGDEEIMMELFDPNTRVEINGKKVHGRENVMHILHHEWREIRLKDLRIKRHESVGNKVHLDGRVNGQINGRKHSIHVRIDIEVVDGRITNISIEHS	1.44
DHEEEIAQKAFTDWHHALLTGDWERHEEMFDPDVREDINGVDLHGRELIVKQVRRDLQDFGIKHFEIRIRRLSFQGNKVIFDGIIIFHVDGREERFHVRVLFRKINGVWYLHSRFLH	1.06
DHEEEKAVEIARLLLEAELTGDWKTFSHLADPHTRWIERIDGREDSRHGMEEVVRIIIERLKEIRMEVRIRRKRVVGDKVELDGELIMRINGVEIRVEVRIIIIIVGDKVKFIEITIH	0.83
DHEEEKLKESLDRLEDINRTGDWHKIHDMLDPHVRVLVNGRKHHGRETATHIYREWRITDIQFKDIRLIGDKVHIHMESRVSVNGREHSVKSELILIKVDGQWYMHAEQFL	1.05
DHEEELAKSMLEIWREVVWTGDEDSLQKLLDPDARYHLVVDGKRVERIGMEHIRKELHRLFREWRIEDMHIHEIRVVDGVAHTRTRLVVNIDGRIVDTETVINVVSFDGRVRSVTVDIR	1.25

Sequence	protease stability score
DHEEEQVRLAFEIFKTLQETGDEELLHHFFDPNARSDVDGREVVGRHAVEEWQRDLGVDHIHVHKFTFIDGRVEMHFTYTQGDKVIKVHIYVHKVDGKWDMHRIHVR	1.24
DHEEHLSHIALRESMEYLETGDPRKYTELMDPNVKLRVDINGKQIEFHGREEASRFMEHVQHEIKGARIETHSEDTQGNKIHMDLKLLINGKESKLIIIALKINGRWLVTSMEVHVK	1.88
DHEEHYSRIAVQEVLHRMLTGDEESLVKLADPHTRMTIGDKELHGWELVFEFLRDWVHKFKNIRLHIHQHEVQGDKIHIEIRVLIDGKEQDVKIHAEKIDGKWIYRQSHFR	0.751
DHEEKAKKFFDDLLRAVKHNDETQLERLFDKNVRFNVGEHNFRGREEFVKMVRTMVEQVDHVTATIVSIETNGDKVNLVAQWDMSHNGNSKRIRVLVVLDDNNGRVVAREMSEK	1.98
DHEEKEARRLLELIWKLIQTGDEHFLRELMDPHARISIDGVRLHGMEDIREFLHRYFKHHGYRWHRQRETEKHVVNGVQILFGEHDGEVDGKRDNTRSRLIFLVIDGKLQELEVNNV	0.855
DHEEKHLEHFLHLITHLEHTGDERTLEKLVDPHVRHEFNGKELHGRERAVRWSEELRQKMGADHWSIKRVNVFDGVVHLHTELEVNGVRVHFHIDVRVVDGRVKHIKIRNE	0.861
DHEEKHMIKIARLILLLWFTGDEDTFSRLADPNVRVIIIWNGKEIHSHGMERFSEDRKRHEEEMRLKDFRIDEVRAVGDKIHMRVTIHLIQGDKEREIDLEIRIVLVNGKLKTIEFIFH	2.63
DHEEKIWEEVLKELVHQFLTGDWKTRTQMADPEVRVESRVGDKFVRMHGREYLRMLMEFLHEQIKNATVTLHSFRVVDGRNEIKLRAEIGDKTHEIDMHYFVVDGRIKSLHVRTWEL	1.05
DHEEKKAKELLHLIVELLITGDEDTLSRLLDPNTRWIINGRHLHGMHVFEEWVRRLKEQYKGVTVHIEIEDSKVVGEKARSEIRLIINIGDKVHDIESRLEIVVIDGKMRSLRFEFK	1.19
DHEEKLSEDISRFLLELYLTGDPERLAKNADPNTKLIIDINGRHEDIHGREYIYKWSLDWFRKAGVTRVEFDLRSMDVQGEKAVIHGVNRVGDKDRHMTEIWIVVNGKLKEVRVKLE	1.28
DHEEKLYELEIRLLQEIVETGDEETSHRLADPHARLNINGRHLVGREHFREFVHKIKGARLDIEEVRVQGDKVIIHGRWIQGDKELDVDFISRKIDGKWKFHSIHVH	1.33
DHEENMLKLMVTLWTQSLRTGDEDTLFRLMDPHARDVVGDKEFHGREEVKHHLRELLLEIRIEDSHVEDFRVYDGVAEIDTRQHGIFNGKRLEYETRILVLKVNGRWIFTHVERR	0.592
DHEERIISEQLKIELESTATGDESTLEELVDPTTKININGKHLHGRESILKLLVEYARRADHIEIRPEHVEVYGNKLIIHGEIRIEVGDKRHSTKVLLILRKVNGRWRLTEEKWD	1.65
DHEERNIEDFLRELLHSLITGDEHTYRRLMDPNMQLFVDGRTFVGWKEALKWYQEILRRIDVIENIEIEQFSVFDGRVFVRVHLHMRVGDKTHHSFVHILLVKINGKWRLEEHEVV	1.79
DHEFEDSKRATEETLHLIETGNEEKIRQLADPHVRIIIFINGRDIHLHGREELSRHISEMGVDHRRWTELRLFEGHAENDVKVNFNGREFKVIIFVRKVNGRWVIERLEVHVI	2.25
DHEHEEFEENLEHFEHHMKTGDFELLLKLADPHVKIHVNGRDYHGWEELKRVLETLGISKVKVEFHRIHLINGVAFNDGKMEVNGVHTKTHYVAKKVNGRWFMRSMEMN	0.775
DHEHRELRELIHRIEKNIRTGNWDVVEKMLDPHARIDIDGKEIHGRDRLVEEMVKQWEKMGVDHIEIKLEDYKVSENEVYLDMIFVIRVGDKVIFIDSHIISRKIDGRWIIHSIHFR	1.95
DHEHRFMEETLERLLHVWRTGDESLIHELADPEARSDVNGREHHGRERFVDTVRHLGVKHVELKDWTIQGEKVHLSTEVDVGDKTFDFEIIIYKINGKWLIHEMRVK	0.945
DHEKENIERSSRIMLRLYETGDEDELRKLADPHARSEVGEFEYHGREEVFRWLNLLIRELGAKHITIRDIKYVGNKLTLHMISHVDGRELNLEIWAIKIDGQWLLTTVHHK	0.69
DHEKEVAERIMRLLFHQLETGDWRLESKMADPNVRLNFNGVHLHGMETSVKWLEELRIHSFRIRDMRIDIINGVAVADNDTETEITFDGVRIRTRTHLHIFVSKFDGRWHVSEIEIRIR	0.094
DHEKKEIEDLLRELFEALFTGDEHILHRLLDPRTKLVINGRNYHGRETVRRFVLHIRIFFHHIEIESSEIQGEWIHLHIRVDFREEQGDKERRIDTHAVMHMLKVNGRWVIHEIVLH	1.54
DHEREDMRRFVQEVLRVIETGDEDIYMRLLDPHYKVDFNGREIIGREELLRFFRDLGVDRIEADKEDVRSQGDKVITNTHITVNGRRIEMRVIVIKIDGQWVLHSLEFR	1.2
DHETRWLRHVLKIWDHMVETGDWEKSERLADPNTKLVIDGVDLHGRRDYNRHMRELRVHHTEINDVELTNIGDKVHLYREVDYDITVDGRRIITHIELFLIIRKVDGRWILEEQEVNFR	0.236
DHEVAKTMMEEWQKALENGDDKKLKELYDPDGEWEADDEQDQGTEVIEKLMEKVKKQGLKFQVRKAKVEGDKFTVVYDLHVGNKTATFEVEVHVEGGRIKKVKAKADEEAKKLITEG	2.05
DHHEEASHRVIEILLRAHRTGDWHELLRMMDPNTMLIVGDKTFHGREELEKILRHFVERAITIHDIKIESVENQGDKIHVHGHIDKRVNGRQVSIETEIDILKVNGRWFISTLRYH	1.89
